The source of these data is PMC2788870.

This test has as its target His6-HPr (B. subtilis) (UniProt P08877). In words: pull-down.
Chain of UniProt P08877 (P08877 whole entry): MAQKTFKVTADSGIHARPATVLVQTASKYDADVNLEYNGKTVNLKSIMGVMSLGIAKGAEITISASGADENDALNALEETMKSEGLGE

For “GST-HBD (from UniProt O31522 403-515) (domain or fragment)”, the stoichiometry N – broadly, the number of molecules, sites or subunits per partner or assembly – is 1.
